The results in this text go back to US20190202921A1 (Five Prime, published 2019).

Numbering of substitutions follows the chain as printed. Numbers in names are those of the source.

Assay [1] has as its target T1, cynomolgus monkey CSF1R ECD (cynomolgus monkey, UniProt P07333 20-505 (human entry)).
T1 construct: also called cynoCSF1R ECD
T1 chain: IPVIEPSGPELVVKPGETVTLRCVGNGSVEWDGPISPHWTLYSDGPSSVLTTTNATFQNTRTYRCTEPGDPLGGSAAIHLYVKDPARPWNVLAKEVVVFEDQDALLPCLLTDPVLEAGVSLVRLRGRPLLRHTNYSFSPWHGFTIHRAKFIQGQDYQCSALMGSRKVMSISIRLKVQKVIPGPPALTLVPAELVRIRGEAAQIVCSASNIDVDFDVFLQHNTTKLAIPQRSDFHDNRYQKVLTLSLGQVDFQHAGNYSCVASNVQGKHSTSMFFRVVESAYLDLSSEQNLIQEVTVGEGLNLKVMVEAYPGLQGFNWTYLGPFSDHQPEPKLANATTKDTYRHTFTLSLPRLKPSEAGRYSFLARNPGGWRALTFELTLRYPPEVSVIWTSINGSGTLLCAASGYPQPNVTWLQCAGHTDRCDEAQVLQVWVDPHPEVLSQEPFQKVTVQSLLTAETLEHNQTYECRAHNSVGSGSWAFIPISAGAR
Nature of the assay: binding test as described in WO 2011/140249.

In the next assay the target is T2, mouse CSF1R ECD (mouse, UniProt P09581 20-515).
T2 construct: extracellular domain
T2 sequence (looked up): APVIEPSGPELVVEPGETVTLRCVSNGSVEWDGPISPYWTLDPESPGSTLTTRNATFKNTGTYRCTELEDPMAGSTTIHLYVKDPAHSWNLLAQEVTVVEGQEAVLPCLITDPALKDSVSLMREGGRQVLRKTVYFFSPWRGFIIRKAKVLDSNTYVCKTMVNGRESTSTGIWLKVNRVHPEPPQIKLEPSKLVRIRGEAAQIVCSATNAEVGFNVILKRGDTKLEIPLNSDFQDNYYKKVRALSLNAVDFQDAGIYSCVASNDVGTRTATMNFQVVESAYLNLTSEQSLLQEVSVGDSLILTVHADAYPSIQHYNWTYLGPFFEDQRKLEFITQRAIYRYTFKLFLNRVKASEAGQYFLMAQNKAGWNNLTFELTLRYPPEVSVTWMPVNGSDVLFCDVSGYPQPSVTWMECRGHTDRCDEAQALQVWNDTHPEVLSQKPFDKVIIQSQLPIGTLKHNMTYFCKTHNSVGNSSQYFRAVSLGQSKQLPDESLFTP
Nature of the assay: binding test as described in WO 2011/140249.

In the next assay the target is T3, rat PD-1 (rat, UniProt D3ZIN8 25-287).
T3 sequence: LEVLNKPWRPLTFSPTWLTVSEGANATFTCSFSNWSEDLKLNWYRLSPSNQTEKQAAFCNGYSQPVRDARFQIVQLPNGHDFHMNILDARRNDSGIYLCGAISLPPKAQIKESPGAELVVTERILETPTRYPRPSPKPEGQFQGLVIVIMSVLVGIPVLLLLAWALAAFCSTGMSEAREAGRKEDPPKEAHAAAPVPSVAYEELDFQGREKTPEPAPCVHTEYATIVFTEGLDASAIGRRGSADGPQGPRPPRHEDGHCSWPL
Nature of the assay: FACS analysis.

B1: huAb8 (antibody, human IgG4 S228P, kappa, V domains shown)
VH: QVQLVQSGAEVKKPGSSVKVSCKASGYTFSDFNIHWVRQAPGQGLEWMGYINPYTDVTVYNEKFKGRVTITSDKSTSTAYMELSSLRSEDTAVYYCASYFDGTFDYALDYWGQGTLVTVSS
VL: EIVLTQSPATLSLSPGERATLSCRASESVDNYGLSFMNWYQQKPGQAPRLLIYTASNLESGIPARFSGSGSRTDFTLTISSLEPEDFAVYYCQQSKELPWTFGQGTKVEIKR
notes: also called huAb 0302-L1H1; h0302-H1 / h0302-L1
In the case of B1, the binding result in assay [1] is recorded as “binds”; in the assay with mouse CSF1R ECD, “no binding”.

B2: huAb13 (antibody, human IgG4 S228P, kappa, V domains shown)
VH: QVQLVQSGAEVKKPGSSVKVSCKASGYIFTDYNMHWVRQAPGQGLEWMGEINPNNGVVVYNQKFKGRVTITVDKSTSTAYMELSSLRSEDTAVYYCTRALYHSNFGWYFDSWGQGTLVTVSS
VL: B1 VL with R24K, E27Q, N31Y, Y32D, L34D, F36H, R72G, S95G, K96N, L98D
notes: also called huAb 0311-L0H1; h0311-H1 / h0311-L0
B2: the binding result is on record as “binds” in assay [1] and “no binding” with mouse CSF1R ECD.

B3: huAb16 (antibody, human IgG4 S228P, kappa, V domains shown)
VH: B2 VH with R67T, V68T, I70L
VL: DIVLTQSPATLSLSPGERATLSCKASQSVDYDGDSHMNWYQQKPGQAPRLLIYTASNLESGIPARFSGSGSGADFTLTISSLEPEDFAVYYCQQGNEDPWTFGQGTKVEIKR
notes: also called huAb 0311-L1H2; h0311-H2 / h0311-L1
Take B3: the figures for the binding result (in assay [1]; with mouse CSF1R ECD) were “binds” and “no binding”, respectively.

B4: huAb15 (antibody, human IgG4 S228P, kappa, V domains shown)
VH: B2 VH with R67T, V68T, I70L
VL: B3 VL with D1E, A73T
notes: also called huAb 0311-L0H2; h0311-H2 / h0311-L0
For B4, the binding result was “binds” in assay [1] and “no binding” in the assay with mouse CSF1R ECD.

B5: huAb10 (antibody, human IgG4 S228P, kappa, V domains shown)
VH: B1 VH with M48I, V68A, I70L
VL: B1 VL with R72G
notes: also called huAb 0302-L0H2; h0302-H2 / h0302-L0
Regarding B5, the binding result in assay [1] was “binds”; with mouse CSF1R ECD, “no binding”.

B6: huAb9 (antibody, human IgG4 S228P, kappa, V domains shown)
VH: B1 VH
VL: B1 VL with L4V, Y40F
notes: also called huAb 0302-L2H1; h0302-H1 / h0302-L2
As for B6, the binding result was “binds” in assay [1] and “no binding” in the assay with mouse CSF1R ECD.

B7: huAb11 (antibody, human IgG4 S228P, kappa, V domains shown)
VH: B1 VH with M48I, V68A, I70L
VL: B1 VL
notes: also called huAb 0302-L1H2; h0302-H2 / h0302-L1
On to B7, for which the values for the binding result (in assay [1]; with mouse CSF1R ECD) were “binds” and “no binding”, respectively.

B8: huAb14 (antibody, human IgG4 S228P, kappa, V domains shown)
VH: B2 VH
VL: B3 VL
notes: also called huAb 0311-L1H1; h0311-H1 / h0311-L1
For B8, the binding result was “binds” in assay [1] and “no binding” in the assay with mouse CSF1R ECD.

B9: huAb7 (antibody, human IgG4 S228P, kappa, V domains shown)
VH: B1 VH
VL: B1 VL with R72G
notes: also called huAb 0302-L0H1; h0302-H1 / h0302-L0
Turning to B9, the binding result in assay [1] is on record as “binds”; in the assay with mouse CSF1R ECD, “no binding”.

B10: huAb12 (antibody, human IgG4 S228P, kappa, V domains shown)
VH: B1 VH with M48I, V68A, I70L
VL: B1 VL with L4V, Y40F
notes: also called huAb 0302-L2H2; h0302-H2 / h0302-L2
Turning to B10, the binding result in assay [1] is “binds”; with mouse CSF1R ECD, “no binding”.

B11: huAb2 (antibody, human IgG4 S228P, kappa)
heavy: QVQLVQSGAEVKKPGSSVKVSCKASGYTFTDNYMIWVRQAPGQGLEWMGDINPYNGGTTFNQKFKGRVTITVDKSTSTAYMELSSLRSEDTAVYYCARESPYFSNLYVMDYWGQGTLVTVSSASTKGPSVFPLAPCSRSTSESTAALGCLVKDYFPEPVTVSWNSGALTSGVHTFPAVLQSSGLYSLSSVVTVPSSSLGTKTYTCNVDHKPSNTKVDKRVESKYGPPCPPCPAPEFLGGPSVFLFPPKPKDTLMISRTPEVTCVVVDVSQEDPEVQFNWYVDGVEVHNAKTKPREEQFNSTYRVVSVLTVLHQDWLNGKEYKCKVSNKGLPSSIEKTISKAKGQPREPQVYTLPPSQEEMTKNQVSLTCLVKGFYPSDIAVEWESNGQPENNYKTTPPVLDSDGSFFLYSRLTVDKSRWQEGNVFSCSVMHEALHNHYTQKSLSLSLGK
light: EIVLTQSPATLSLSPGERATLSCKASQSVDYDGDNYMNWYQQKPGQAPRLLIYAASNLESGIPARFSGSGSGTDFTLTISSLEPEDFAVYYCHLSNEDLSTFGGGTKVEIKRTVAAPSVFIFPPSDEQLKSGTASVVCLLNNFYPREAKVQWKVDNALQSGNSQESVTEQDSKDSTYSLSSTLTLSKADYEKHKVYACEVTHQGLSSPVTKSFNRGEC
notes: also called huAb 0301-L0H1; h0301-H1 / h0301-L0
Consider B11, for which the binding result in assay [1] is on record as “binds”; in the assay with mouse CSF1R ECD, “no binding”.

B12: huAb1 (antibody, human IgG4 S228P, kappa)
heavy: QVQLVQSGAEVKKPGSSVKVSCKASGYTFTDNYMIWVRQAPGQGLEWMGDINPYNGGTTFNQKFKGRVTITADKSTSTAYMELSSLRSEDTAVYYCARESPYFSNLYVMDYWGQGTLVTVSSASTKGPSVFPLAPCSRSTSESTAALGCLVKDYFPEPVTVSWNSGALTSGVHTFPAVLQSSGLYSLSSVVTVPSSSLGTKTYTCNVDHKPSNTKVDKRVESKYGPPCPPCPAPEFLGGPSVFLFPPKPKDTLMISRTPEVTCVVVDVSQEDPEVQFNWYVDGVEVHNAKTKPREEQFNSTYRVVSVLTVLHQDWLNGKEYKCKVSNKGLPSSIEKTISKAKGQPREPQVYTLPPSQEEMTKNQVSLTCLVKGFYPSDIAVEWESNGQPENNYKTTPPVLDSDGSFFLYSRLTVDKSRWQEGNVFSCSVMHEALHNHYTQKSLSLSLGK
light: B11 light
notes: also called huAb 0301-L0H0; FPA008
For B12, the binding result was “binds” in assay [1] and “no binding” with mouse CSF1R ECD.

B13: huAb3 (antibody, human IgG4 S228P, kappa)
heavy: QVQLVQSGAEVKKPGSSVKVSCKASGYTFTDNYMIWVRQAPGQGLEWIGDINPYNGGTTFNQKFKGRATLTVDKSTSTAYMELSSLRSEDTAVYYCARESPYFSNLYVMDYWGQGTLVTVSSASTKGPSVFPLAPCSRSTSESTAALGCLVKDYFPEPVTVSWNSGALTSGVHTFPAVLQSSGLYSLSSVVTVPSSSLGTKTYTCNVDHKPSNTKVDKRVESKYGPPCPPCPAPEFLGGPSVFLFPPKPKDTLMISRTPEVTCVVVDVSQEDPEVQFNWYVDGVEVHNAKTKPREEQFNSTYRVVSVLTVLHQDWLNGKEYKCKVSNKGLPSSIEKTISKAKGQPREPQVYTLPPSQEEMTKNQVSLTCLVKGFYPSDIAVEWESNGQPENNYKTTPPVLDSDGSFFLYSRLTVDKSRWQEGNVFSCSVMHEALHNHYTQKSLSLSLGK
light: B11 light
notes: also called huAb 0301-L0H2; h0301-H2 / h0301-L0
For B13, the figures for the binding result (in assay [1]; with mouse CSF1R ECD) were “binds” and “no binding”, respectively.

B14: huAb4 (antibody, human IgG4 S228P, kappa)
heavy: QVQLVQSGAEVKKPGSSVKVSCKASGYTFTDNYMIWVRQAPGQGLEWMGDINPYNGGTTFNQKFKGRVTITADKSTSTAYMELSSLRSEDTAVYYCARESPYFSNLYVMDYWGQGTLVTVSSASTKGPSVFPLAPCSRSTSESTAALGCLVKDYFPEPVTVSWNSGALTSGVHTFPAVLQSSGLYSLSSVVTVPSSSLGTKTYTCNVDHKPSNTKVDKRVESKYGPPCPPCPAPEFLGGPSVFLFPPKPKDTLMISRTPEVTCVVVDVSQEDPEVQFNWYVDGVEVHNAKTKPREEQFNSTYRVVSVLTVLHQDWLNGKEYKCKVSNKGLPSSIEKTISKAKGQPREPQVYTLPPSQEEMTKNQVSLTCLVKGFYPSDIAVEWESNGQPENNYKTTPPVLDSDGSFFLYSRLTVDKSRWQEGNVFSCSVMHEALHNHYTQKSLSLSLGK
light: B11 light with E1N
notes: also called huAb 0301-L1H0; h0301-H0 / h0301-L1
Consider B14, for which the figures for the binding result (in assay [1]; with mouse CSF1R ECD) were “binds” and “no binding”, respectively.

B15: huAb6 (antibody, human IgG4 S228P, kappa)
heavy: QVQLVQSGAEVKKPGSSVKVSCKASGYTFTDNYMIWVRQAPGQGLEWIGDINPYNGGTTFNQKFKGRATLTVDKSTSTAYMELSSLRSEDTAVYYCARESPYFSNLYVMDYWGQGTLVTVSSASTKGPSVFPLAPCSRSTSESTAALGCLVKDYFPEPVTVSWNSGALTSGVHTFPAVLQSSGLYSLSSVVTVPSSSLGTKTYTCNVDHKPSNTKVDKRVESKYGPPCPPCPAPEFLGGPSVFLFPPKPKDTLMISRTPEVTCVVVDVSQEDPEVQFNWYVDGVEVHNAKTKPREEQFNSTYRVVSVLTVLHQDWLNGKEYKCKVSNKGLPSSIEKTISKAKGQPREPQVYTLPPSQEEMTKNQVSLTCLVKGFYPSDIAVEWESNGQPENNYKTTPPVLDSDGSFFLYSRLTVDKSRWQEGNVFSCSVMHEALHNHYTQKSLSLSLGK
light: B11 light with E1N
notes: also called huAb 0301-L1H2; h0301-H2 / h0301-L1
For the molecule B15, the values for the binding result (in assay [1]; in the assay with mouse CSF1R ECD) were “binds” and “no binding”, respectively.

B16: huAb5 (antibody, human IgG4 S228P, kappa)
heavy: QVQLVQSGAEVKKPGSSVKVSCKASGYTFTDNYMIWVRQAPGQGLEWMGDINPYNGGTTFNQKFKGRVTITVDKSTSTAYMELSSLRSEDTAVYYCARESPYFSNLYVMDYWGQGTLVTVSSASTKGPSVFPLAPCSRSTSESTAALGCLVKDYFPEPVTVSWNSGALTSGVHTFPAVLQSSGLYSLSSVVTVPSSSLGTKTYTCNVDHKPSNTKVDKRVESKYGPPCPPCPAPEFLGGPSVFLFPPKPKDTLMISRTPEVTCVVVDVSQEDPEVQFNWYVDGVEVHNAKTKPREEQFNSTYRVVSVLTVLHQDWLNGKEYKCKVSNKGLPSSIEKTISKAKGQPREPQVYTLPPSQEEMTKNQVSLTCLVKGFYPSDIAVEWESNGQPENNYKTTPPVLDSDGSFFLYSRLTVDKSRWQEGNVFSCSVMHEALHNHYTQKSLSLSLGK
light: B11 light with E1N
notes: also called huAb 0301-L1H1; h0301-H1 / h0301-L1
Take B16: the binding result in assay [1] is reported as “binds”; in the assay with mouse CSF1R ECD, “no binding”.

B17: nivolumab (antibody, human IgG4 S228P, kappa, V domains shown)
VH: QVQLVESGGGVVQPGRSLRLDCKASGITFSNSGMHWVRQAPGKGLEWVAVIWYDGSKRYYADSVKGRFTISRDNSKNTLFLQMNSLRAEDTAVYYCATNDDYWGQGTLVTVSS
VL: EIVLTQSPATLSLSPGERATLSCRASQSVSSYLAWYQQKPGQAPRLLIYDASNRATGIPARFSGSGSGTDFTLTISSLEPEDFAVYYCQQSSNWPRTFGQGTKVEIKR
notes: Fully human IgG4 (S228P); also called Opdivo; 5C4
As for B17, the binding result in the assay with rat PD-1 is “no binding”.
